B1: LRRC45 (parent)
chain: DLSAANEKNLLLQNQVDELERKFR
B2: MLL5 (parent)
chain: EQIAERKRKMVSWEASSLGLVTAA

Variants of: B1
Test: protein stability index of a GFP-peptide fusion (GPS, HEK-293T) (PSI 1-6); higher = more stable
Conditions: c terminus: a fixed tail appended
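Note: lentivirally expressed fusions sorted by FACS into six bins by GFP to DsRed ratio, PSI derived from sequencing read proportions per bin multiplied by bin number.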

| Variant | protein stability index |
| --- | --- |
| K8C | 3.83 |
| K8T | 4.31 |
| K8M | 4 |
| K8Q | 4.12 |
| K8R | 4.15 |
| K8D | 4.21 |
| K8W | 3.6 |
| K8P | 4.35 |
| K8I | 3.43 |
| K8A | 4.62 |
| K8H | 4.06 |
| K8N | 4 |
| K8V | 3.85 |
| K8S | 4.36 |
| K8E | 4.56 |
| K8G | 4.17 |
| K8Y | 3.63 |
| K8L | 3.6 |
| K8F | 3.85 |
| Q13C | 4.03 |
| Q13L | 3.96 |
| Q13F | 3.44 |
| Q13D | 4.63 |
| Q13Y | 3.42 |

| Variant | protein stability index |
| --- | --- |
| Q13P | 3.8 |
| Q13E | 4.71 |
| Q13A | 4.25 |
| Q13I | 3.6 |
| Q13G | 4.11 |
| Q13M | 3.71 |
| Q13T | 4.11 |
| Q13W | 3.3 |
| Q13K | 4.32 |
| Q13R | 3.74 |
| Q13S | 3.98 |
| Q13V | 4.53 |
| Q13N | 3.68 |
| Q13H | 3.66 |
| N14P | 3.69 |
| N14D | 4.54 |
| N14C | 4 |
| N14M | 3.54 |
| N14Q | 4.49 |
| N14I | 3.05 |
| N14L | 3.43 |
| N14E | 4.19 |
| N14R | 3.76 |
| N14F | 3.02 |

| Variant | protein stability index |
| --- | --- |
| N14K | 3.69 |
| N14A | 3.95 |
| N14G | 4.11 |
| N14H | 3.62 |
| E7K | 3.7 |
| E7I | 3.2 |
| E7Q | 3.63 |
| E7S | 3.74 |
| E7L | 2.96 |
| E7N | 3.01 |
| E7V | 3.46 |
| E7T | 3.69 |
| E7F | 2.88 |
| E7W | 2.72 |
| E7C | 3.78 |
| E7A | 3.5 |
| E7D | 4.73 |
| E7Y | 2.98 |
| E7R | 3.84 |
| E7G | 3.43 |
| E7M | 3.14 |
| E7H | 3.94 |
| E7P | 4.31 |
| L11K | 4.57 |

| Variant | protein stability index |
| --- | --- |
| L11W | 3.89 |
| L11I | 4.46 |
| L11E | 4.84 |
| L11D | 4.94 |
| L11G | 4.32 |
| L11H | 4.59 |
| L11T | 3.86 |
| L11F | 4.13 |
| L11V | 3.96 |
| L11C | 4.15 |
| L11P | 4.32 |
| L11Q | 4.31 |
| L11S | 4.31 |
| L11M | 3.56 |
| L11Y | 4.2 |
| L11R | 4.04 |
| L11A | 4.42 |
| L11N | 4.5 |
| S3I | 3.51 |
| S3F | 3.49 |
| S3N | 4.07 |
| S3E | 4.86 |
| S3Y | 3.58 |
| S3D | 4.64 |

| Variant | protein stability index |
| --- | --- |
| S3K | 4.15 |
| S3V | 3.89 |
| S3T | 3.62 |
| S3A | 4.44 |
| S3M | 4.11 |
| S3P | 4.31 |
| S3G | 4.54 |
| S3W | 3.18 |
| S3H | 4.13 |
| S3C | 3.74 |
| S3L | 3.51 |
| S3Q | 4.04 |
| S3R | 4.26 |
| L10Y | 3.71 |
| L10S | 4.45 |
| L10K | 4 |
| L10V | 4.39 |
| L10T | 4.26 |
| L10G | 4.77 |
| L10C | 4.07 |
| L10Q | 4.51 |
| L10H | 4.62 |
| L10W | 3.89 |
| L10R | 4.06 |

| Variant | protein stability index |
| --- | --- |
| L10M | 4.09 |
| L10E | 4.94 |
| L10A | 4.18 |
| L10N | 4.17 |
| L10D | 4.86 |
| L10P | 4.75 |
| L10F | 3.94 |
| L10I | 3.58 |
| L12D | 4.46 |
| L12H | 4 |
| L12P | 4.18 |
| L12G | 4.03 |
| L12S | 4.03 |
| L12W | 3.48 |
| L12I | 4.25 |
| L12K | 3.77 |
| L12C | 4.31 |
| L12E | 4.61 |
| L12Y | 4.08 |
| L12N | 4.01 |
| L12A | 4.37 |
| L12F | 4.09 |
| L12Q | 4.19 |
| L12V | 4.36 |

| Variant | protein stability index |
| --- | --- |
| L12T | 3.64 |
| L12M | 3.87 |
| L12R | 3.98 |
| A5H | 4.16 |
| A5T | 3.91 |
| A5D | 3.69 |
| A5P | 4 |
| A5Q | 3.9 |
| A5I | 4.02 |
| A5F | 3.79 |
| A5K | 4.33 |
| A5C | 4.42 |
| A5Y | 3.87 |
| A5M | 3.62 |
| A5W | 3.34 |
| A5E | 4.01 |
| A5L | 3.83 |
| A5V | 3.95 |
| A5R | 3.67 |
| A5S | 4.39 |
| A5G | 4.22 |
| A5N | 3.18 |
| D1A | 4.6 |
| D1C | 3.73 |

| Variant | protein stability index |
| --- | --- |
| D1V | 4.34 |
| D1S | 4.25 |
| D1M | 4.23 |
| D1R | 4.41 |
| D1T | 3.83 |
| D1Q | 4.21 |
| D1F | 4.09 |
| D1P | 4.17 |
| D1W | 3.75 |
| D1Y | 4.19 |
| D1E | 3.61 |
| D1K | 4.19 |
| D1H | 4.42 |
| D1G | 4.55 |
| D1L | 3.93 |
| D1N | 4.4 |
| D1I | 3.93 |
| N6A | 5.2 |
| N6W | 3.37 |
| N6G | 4.82 |
| N6P | 4.62 |
| N6E | 4.69 |
| N6V | 4.38 |
| N6K | 4.51 |

| Variant | protein stability index |
| --- | --- |
| N6M | 3.97 |
| N6C | 4.59 |
| N6S | 4.92 |
| N6F | 3.62 |
| N6H | 4.27 |
| N6T | 4.4 |
| N6R | 4.61 |
| N6D | 5.02 |
| N6Y | 3.77 |
| N6Q | 4.73 |
| N6I | 3.27 |
| N6L | 3.8 |
| A4N | 3.29 |
| A4E | 4.53 |
| A4I | 3.81 |
| A4K | 4.36 |
| A4F | 3.61 |
| A4P | 4.11 |
| A4D | 4.67 |
| A4Q | 3.82 |
| A4S | 4.05 |
| A4L | 3.06 |
| A4Y | 3.91 |
| A4V | 3.77 |

| Variant | protein stability index |
| --- | --- |
| A4C | 3.85 |
| A4T | 4.06 |
| A4H | 4.01 |
| A4R | 4.07 |
| A4M | 3.49 |
| A4W | 3.78 |
| A4G | 3.77 |
| N9F | 3.98 |
| N9V | 4.12 |
| N9S | 4.63 |
| N9W | 3.79 |
| N9Y | 3.67 |
| N9Q | 4.57 |
| N9L | 3.54 |
| N9E | 4.89 |
| N9R | 4.02 |
| N9P | 4.3 |
| N9K | 4.11 |
| N9T | 4.59 |
| N9A | 4.77 |
| N9G | 3.93 |
| N9H | 4.2 |
| N9D | 4.91 |
| N9M | 4.24 |

| Variant | protein stability index |
| --- | --- |
| N9I | 4.21 |
| N9C | 4.23 |
| L2C | 4.76 |
| L2E | 5.13 |
| L2G | 4.78 |
| L2N | 4.64 |
| L2D | 5.31 |
| L2T | 4.92 |
| L2Q | 4.69 |
| L2P | 4.67 |
| L2S | 4.86 |
| L2K | 5.06 |
| L2H | 4.61 |
| L2F | 4.54 |
| L2R | 4.86 |
| L2M | 4.19 |
| L2A | 5.21 |
| L2I | 3.27 |
| L2W | 4.27 |
| L2Y | 4.85 |
| L2V | 3.89 |

Variants of: B2
Test: as above
Conditions: c terminus: a fixed tail appended

| Variant | protein stability index |
| --- | --- |
| A24D | 4.11 |
| A24N | 3.25 |
| A24S | 3.57 |
| A24V | 3.04 |
| A24H | 3.17 |
| A24Q | 3.39 |
| A24C | 2.39 |
| A24Y | 2.1 |
| A24F | 2.29 |
| A24E | 4.38 |
| A24K | 2.4 |
| A23F | 1.58 |
| A23S | 2.68 |
| A23Q | 2.31 |
| A23Y | 2.28 |
| A23N | 2.31 |
| A23K | 3.27 |
| A23I | 3.23 |
| A23P | 3.41 |
| A23W | 2.08 |
| A23E | 3.96 |
| A23D | 3.98 |
| A23M | 3.11 |
| A23C | 3.12 |
| A23R | 2.63 |

| Variant | protein stability index |
| --- | --- |
| A23T | 2.31 |
| T22S | 2.92 |
| T22H | 2.85 |
| T22D | 3.63 |
| T22Q | 3.73 |
| T22E | 3.63 |
| T22W | 1.79 |
| T22V | 3.58 |
| T22A | 3.33 |
| T22L | 2.18 |
| T22K | 2.54 |
| T22I | 1.62 |
| T22F | 1.83 |
| T22N | 3.21 |
| T22M | 2.63 |
| T22Y | 2.57 |
| L20F | 3.35 |
| L20D | 3.82 |
| L20C | 3.71 |
| L20E | 4.3 |
| L20V | 3.37 |
| L20I | 3.77 |
| L20T | 3.87 |
| L20K | 3.9 |
| L20H | 3.54 |

| Variant | protein stability index |
| --- | --- |
| L20S | 4.99 |
| L20Q | 3.47 |
| L20P | 3.72 |
| L20W | 2.42 |
| L20Y | 2.68 |
| L20N | 3.62 |
| V21R | 2.96 |
| V21N | 3.22 |
| V21E | 2.73 |
| V21Q | 3.22 |
| V21S | 3.68 |
| V21D | 3.55 |
| V21T | 3.62 |
| V21A | 3.23 |
| V21F | 2.38 |
| V21L | 2.76 |
| V21C | 3.05 |
| V21H | 2.82 |
| V21M | 3.32 |
| V21G | 3.4 |
| V21W | 2.86 |
| V21P | 2.44 |
| V21I | 3.15 |

Source: the supplement of paper PMC10567573
